# B1: EndoSH: fusion enzyme of endoglycosidases EndoS and EndoH connected via a -(G4S)3-(His)6-(G4S)3- linker, SEQ ID NO: 1 (protein)
# chain: MPSIDSLHYLSENSKKEFKEELSKAGQESQKVKEILAKAQQADKQAQELAKMKIPEKIPMKPLHGPLYGGYFRTWHDKTSDPTEKDKVNSMGELPKEVDLAFIFHDWTKDYSLFWKELATKHVPKLNKQGTRVIRTIPWRFLAGGDNSGIAEDTSKYPNTPEGNKALAKAIVDEYVYKYNLDGLDVDVEHDSIPKVDKKEDTAGVERSIQVFEEIGKLIGPKGVDKSRLFIMDSTYMADKNPLIERGAPYINLLLVQVYGSQGEKGGWEPVSNRPEKTMEERWQGYSKYIRPEQYMIGFSFYEENAQEGNLWYDINSRKDEDKANGINTDITGTRAERYARWQPKTGGVKGGIFSYAIDRDGVAHQPKKYAKQKEFKDATDNIFHSDYSVSKALKTVMLKDKSYDLIDEKDFPDKALREAVMAQVGTRKGDLERFNGTLRLDNPAIQSLEGLNKFKKLAQLDLIGLSRITKLDRSVLPANMKPGKDTLETVLETYKKDNKEEPATIPPVSLKVSGLTGLKELDLSGFDRETLAGLDAATLTSLEKVDISGNKLDLAPGTENRQIFDTMLSTISNHVGSNEQTVKFDKQKPTGHYPDTYGKTSLRLPVANEKVDLQSQLLFGTVTNQGTLINSEADYKAYQNHKIAGRSFVDSNYHYNNFKVSYENYTVKVTDSTLGTTTDKTLATDKEETYKVDFFSPADKTKAVHTAKVIVGDEKTMMVNLAEGATVIGGSADPVNARKVFDGQLGSETDNISLGWDSKQSIIFKLKEDGLIKHWRFFNDSARNPETTNKPIQEASLQIFNIKDYNLDNLLENPNKFDDEKYWITVDTYSAQGERATAFSNTLNNITSKYWRVVFDTKGDRYSSPVVPELQILGYPLPNADTIMKTVTTAKELSQQKDKFSQKMLDELKIKEMALETSLNSKIFDVTAINANAGVLKDCIEKRQLLKKGGGGSGGGGSGGGGSHHHHHHEFGGGGSGGGGSGGGGSAPAPVKQGPTSVAYVEVNNNSMLNVGKYTLADGGGNAFDVAVIFAANINYDTGTKTAYLHFNENVQRVLDNAVTQIRPLQQQGIKVLLSVLGNHQGAGFANFPSQQAASAFAKQLSDAVAKYGLDGVDFDDEYAEYGNNGTAQPNDSSFVHLVTALRANMPDKIISLYNIGPAASRLSYGGVDVSDKFDYAWNPYYGTWQVPGIALPKAQLSPAAVEIGRTSRSTVADLARRTVDEGYGVYLTYNLDGGDRTADVSAFTRELYGSEAVRTP
# modifications: Fusion protein EndoSH
# Key:
# Assay type in all cases: biochemical
# Trastuzumab = test: Trimming of trastuzumab by EndoSH; conditions: 0.1 w/w % EndoSH, 37° C., after 1 hour, 25 mM Tris buffer pH 8, MS analysis
# Experimental: Trastuzumab (obtained from Epirus biopharma (Utrecht, The Netherlands)) in 25 mM Tris buffer pH 8), (14 mg/mL) was trimmed using a concentration of either 0.1 or 1 w/w % EndoSH. The reactions, 350 μg trastuzumab (25 μL) and the appropriate amount of EndoSH, were stirred at 37° C. and analyzed by MS analysis overtime, 1 to 3 hours. Samples were subjected to Fabricator treatment prior to analysis.
# (§1) Prior to mass spectral analysis, IgGs were either treated with DTT, which allows analysis of both light and heavy chain, or treated with Fabricator™ (commercially available from Genovis, Lund, Sweden), which allows analysis of the Fc/2 fragment. For analysis of both light and heavy chain, a solution of 20 μg (modified) IgG was incubated for 5 minutes at 37° C. with 100 mM DTT in a total volume of 4 μL. If present, azide-functionalities are reduced to amines under these conditions. For analysis of the Fc/2 fragment, a solution of 20 μg (modified) IgG was incubated for 1 hour at 37° C. with Fabricator™ (1.25 U/μL) in phosphate-buffered saline (PBS) pH 6.6 in a total volume of 10 μL. After reduction or Fabricator-digestion the samples were washed trice with milliQ using an Amicon Ultra-0.5, Ultracel-10 Membrane (Millipore) resulting in a final sample volume of approximately 40 μL. Next, the samples were analyzed by electrospray ionization time-of-flight (ESI-TOF) on a JEOL AccuTOF. […]
# [1] = system: Trastuzumab having high-mannose glycans; test: Trimming of high-mannose trastuzumab by fusion protein EndoSH; conditions: 1 w/w % EndoSH, 37° C., after 3 hours, 25 mM Tris buffer pH 8, MS analysis
# Experimental: Trastuzumab having high-mannose glycans (obtained via transient expression in CHO K1 cells in the presence of kifunensine performed by Evitria (Zurich, Switzerland)) (14 mg/mL) in 25 mM Tris buffer pH 8, was trimmed using a concentration of either 0.1 or 1 w/w % EndoSH. The reactions, 350 μg high-mannose trastuzumab (25 μL) and the appropriate amount of EndoSH, were stirred at 37° C. and analyzed by MS analysis over time, 1-3 hours. Samples were subjected to Fabricator treatment prior to analysis.
# as §1, with “After reduction or Fabricator-digestion the samples were washed trice with milliQ using an Amicon Ultra-0.5, Ultracel-10 Membrane (Millipore) resulting in a final sample volume of approximately 40 μL.” left out
# glycans on glycoproteins = test: pH at which the endoglycosidase activity operates
# Source text: Trimming of glycoproteins is known in the art, from e.g. WO 2007/133855 or WO 2014/065661.
molecule,measurement,setting,value
B1,"conversion to the trimmed product, trimmed to the core GlcNAc sugar residue",Trastuzumab,Full conversions
same,"conversion to the trimmed product, trimmed to the core GlcNAc sugar residue",[1],Full conversions
same,pH at which both activities (EndoS and EndoH) of the fusion enzyme function smoothly,glycans on glycoproteins,7-8

# — patent US11957763B2, “Sulfamide linkers for use in bioconjugates” (SYNAFFIX B.V., priority 2016, dated 2024)
